Assay results published in the nanobody polyreactivity screen of Harvey et al. (2022).

Assay: yeast display, Sf9 membrane polyspecificity reagent, FACS + sequencing; frameworks hold sequencing errors
In short: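 Synthetic nanobody libraries on Saccharomyces cerevisiae BJ5465 were galactose-induced for 36–48 hours, stained 1 hour at 4 °C with 10% biotinylated, detergent-solubilized Sf9 membrane reagent and enriched on streptavidin microbeads. FACS then separated cells into low and high (top ~1%) gates by anti-HA (expression) and streptavidin (reagent binding) fluorescence. Genes were colony-PCR amplified, MiSeq 2 × 250 sequenced and CDR-length filtered. A clone's polyreactivity label is that of its gate of origin.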

| Sequence | polyreactivity (PSR sort gate) |
| --- | --- |
| QVQLVESGGGLVQAGGSLRLSCAASGFIFLYYAMGWYRQAPGKERELVAAITTRGGRTYYADSVKGRFTISRDNAKNTVYLQMNSLIPEDTAVYYCAADHLYWGLEYESWGQGTQVTVSS | low polyreactivity |
| QVQIVESGGGLVQAGGSLRLSCAASGRTFTHYAMGWYRQAPGKERELVAAISSGGGTYYADSVKGRFTIARDNAKKTVYLQMNSLKPEDTAVYYCNADYSNYLDPFRTYGYWGQGTQVTVSS | low polyreactivity |
| QVQLVESGGGLVQAGGSLRLSCAASGRTLSYNTMGWYRQAPGKEREFVAANTWSGGSTNYADSVKGRFTISRDNAKNTVYLQMNSLKPEDTAVYYCNADYLTVSWSIPEHVTVRLMYYWGQGTQVTVSS | low polyreactivity |
| QVQLVESGGGFVQAGGSLRVSCAASGSIFGSYAMGWYRQAPGKERELVADISSGGSTNYADSVKGRFTISRDNAKNTVYLQMNSLKPEDTAVYYCNADDPAGYLYWWGSWLESDYWGQGTQGTVSS | low polyreactivity |
| QVQLVESGGGLVQAGGSLRLSCASSGGTFEVNAMGWYRQAPGKERELVAAIDTSDGSTYYADSVKGRFTISRDNAKNTVYFQMNSLKPEDTSVYYCAAERLFRFWYSAYERYDYWGQGTQVTVSS | low polyreactivity |
| QVQLVESGGGLVQAGGSLRLSCAASGSIFGDYAMSWYRQAPGKERELVATITWIGGSTYYADSVKGRFTISRDNAKNTVYLQMNSLKPADTAVYYCAIYMGSYRLDYWGQGPQVTVSS | low polyreactivity |
| QVQLVESGGGLVQAGGSLRLSCAASGRTFSRYAMGWYRQAPGKERELVAAISRSGGITYYADSVKGRFTISRDYAKNTVYLQMNSLKPEDTAVYYCAKVYPRVGYDYWGQGTQVTVSS | high polyreactivity |
| QVQLVESGGGLVQAGGSLRVSCAASGSTFSQYAMGLYRQAPGKEREFVAVITLSVVSTSYADSVKGRFTFSRDNAKNTVYLQMNSQKPEDTAVYYCNKDSGVRGPGYGYWGQGTQVTVSS | low polyreactivity |
| QVQLVESGGGLVQAVGSLRLSCADSGRLLSYYDMGWYRQAPGKVRELVARLGGTYYADSVKGRFTISRYIAKNTVYLQMNSLKPEDTAVYYCAAEYGYDFLRSYHEYGYWGQGTQVTVSS | low polyreactivity |
| QVQLVESGGGLVQAGGSLRLSCAASGLIFGWYAMGWDRQAPGKERELVAAITRSGGSTYYADSVKGRFTISRDTAKNTVYLQMHSLKPEDTAVYSCAAEIHYSYTRGYGYWGQGTQVTVSS | high polyreactivity |
| QVQLVESGGRLVQAGGSLRLSCAASGRIFDGNAMGWYRQAPGKERELVAAISWTGGSTYYADSVKGRFTISRDNAKNTVYLQMNSLKPEDTAVYYCAADSGWWLDQWSWYDYWGQGTQVTVSS | low polyreactivity |
| QVQLVESVGGLVQAGGSLRLSCASSGRIFAWYGMGSYRQAPGKEMELVAAINSGGRTYYEDSVKGRFTISRVNAKNTVYLQMNSLKPEDTAVYYCAAKLAAYGWRFHYGYWGQGTQVTVSS | high polyreactivity |
| QVQLVESGGGLVQAGGSLRLSCAASGITFWKYAMGWYRQAPGKERELVAAISGRGGSTYYADSVKGRFTISRDNAKNTVYLQMNSLKPEDTAVFYCAKFPGISGYNYWGQGTQVTVSS | high polyreactivity |
| QVQLVESGGGLVQAGGSLRLSCAASGGIFYYYAMGWYRQAPGKERQLVAGISADGGSTYYADSVKGRFTISRDNAKNTVYLQMNSLKPEDTAVYYCAADGQFDDYYSLAFDYDYWGQGTQVTVSS | high polyreactivity |
| QVQLVESGGGLVQAGGSLRLSCAASGFIFAGYTMGWYRQAPGKERELVAAINSGGSTKYADSVKGRFTISRDNAKNTVYLHMNSLKPEDTAVYYCNADYGWYFLFDYWGQGTQVTVSS | low polyreactivity |
| QVQLVESGGGLVQAGGSLRLSCAASGRTLYPYAMGWYRQAPGKERELVAAISSTGGRTYYADSVKGRFTISRDNAKNTVYLQMNSLKPEDTAVYYCAAIYRAQYDYWGQGTQVTVSS | high polyreactivity |
| QVQLVESGGGLVQAGGSLRLSCAASGITFAYYAMGWYRQAPGKERELVAAIRWSGGDTYYADSVKGRFTISRDNAKNTVYLQMNSLKPEDTAVYYCAADTTWGYDYWGQGTQVTVSS | low polyreactivity |
| QVQLVESGGGLVQAGGSLRLSCAASGSTFGLYAMGWYRQAPGKERELVAAIRWSGGRTYYADSVKGRFTISRDNAKNTVYLQMNSLKPEDTAVYYCAARSLRSKNDYWGQGTQVTVSS | high polyreactivity |
| QVQLVESGGGLVQAGGSLRLSCAATGFIFAANAMGWYRQAPGKERELVAAINYRGSSTYYADSVKGRFTISRDNAKNTVYLQMNSLKPEDTAVYYCAARSGAQRGGGYWGQGTQVTVSS | high polyreactivity |
| QVQLVESGGCLVQAGGSLRLSCAASGSIFYYYAMGWYRQAPGKERELVADISISGGSTYYADSVKGRFTISRDNAKNTVYLQMNSLKPEDTAVYYCAATDYLWEPTVSNWGYTFDSWGQGTQVTVSS | low polyreactivity |
| QVQLVESGGGLVQAGGSLRLSCAASGRTFEWYAMGWYRPAPGKERELVAVISSGGSTNYADSVKGRFTISRDNAKNTVYLQMNSLIPEDTAVYYCAVLQARDGYWLYLYDYWGQGTQVTVSS | low polyreactivity |
| QVQLVESGGGLVQAGGSLRLSCAASGRTFAINAMGWYRQAPGKERELVADITTDGSTYYADSVKGRFTISRDNAKNTVYLQMNSLKPEDTAVYYCATDSLDYFIRFKQFGYWGQGTQVTVSS | low polyreactivity |

| Sequence | polyreactivity (PSR sort gate) |
| --- | --- |
| QVQLVESGGGLVQAGGSLRLSCAASGRTFNYYAMGWYRQAPGKERELVAAISTSGGSTYYADSVKGRFTISRDNAKNTVYLQMNSLKPEDTAVYYCNAVYRVWYAEWSTVGSPHDYWGQGTQVTVSS | low polyreactivity |
| QVQLVESGGGLVQAGGSLRLSCAASGSPFKRYAMGWYRQAPGKERELVAAISSRGSSTYYADSVKGRFTISRDNAKNTVYLQMNSLKPEDTAVYYCAADRYTFWTVHSDYWGQGTQVTVSS | high polyreactivity |
| QLQLVESGGGLVQAGGSLRLSCAASGITFQWYAMGWYRQAPGKERELVARISSGGSTNYADSVKGRFTISCDNAKYTVYLQMNSVKPEDTAVYYCNARYFWFDYWGQGTQVTVSS | high polyreactivity |
| QVQLVESGGGLVQAGGSLRLSCAASGFIFVVNAMGWYRQAPGKEREFVAVISSSTGSTYYADSVKGRFTISRDNAKNTVYLQMNSLKPEDTAVYYCAAASRRRRPLNRMDYWGQGTQVTVSS | low polyreactivity |
| QVQIVESGGGLVQAGGSLRLTCAASGFTFGPYAMGWYRQEPGKERELVAAITVNGSSTYADSVKGRFTISRDNAKNTVVLQMNSLKPEDTAVYYCAATVYPGGPYGGDSDYWGQGTQVTVSS | low polyreactivity |
| QVQLVESVGGLVQAGGSLSLSCAASGIIFVPYAMVWYRQAPGKERELVAAISSGGSTDYADSVKGRFTISRDNAKNTVYLQMNSLKPEDTAVYYCNKYYRGIFKAHRDYWGQGTQVTLSS | low polyreactivity |
| QVQLVESGGGLVQAGGSLRLSCAASGSIFKQYDMGWYRQAPGKERDLVAAITASDGSTYYADSVKGRFTISRDNAMNTVYLQMNSLKPEDTAVYFCAADGGVAWGYGYCGQGTQVTVSS | low polyreactivity |
| QVQLVESGGGLVQAGGSLRLSCAASGRTIGYYAMGWYRQAPGKERELDAAITRSGGSTYYADSVKGRFTISRDNAKNTVYLQMKSLKPEDTAVYYCATYSVSGKPLGYWGHGTQVTVSS | low polyreactivity |
| QVQLVESGGGLVQARGSLRLSCAASGSTLTRNALGWYRQAPGKERELVAAITQRGGSTYYADSVKGRFTISRDNGKNTVYFQMNSLKPEDTAVYYCAKVPSVKYRSIWVLPEYGWGQGTQVTVSS | high polyreactivity |
| QVQLVESGGGLVQAGGILRLSCAASGFIFEYYAMGWYRQAPGKERELVAAINGGGGNTYYADSVKGRFTISRDNAKNTVYLQMNSLKPEDTAVYYCNAKRRKYRYDYWGQGTQVTVSS | high polyreactivity |
| QVQLVESGGGLVQAGGSLRLSCAASGRTFKDYAMGWYRQAPGKERELVAAISWSGGDTYYADSVKGRVTISRDNAKNTVYLQMNSLKPEDTAVYYCNADPSGVFFYSLEFDYWGQGTQVTVSS | low polyreactivity |
| QVQLVESGGGLVQAGGSLRKSCAASGRIFGINAMGWSRQAPGNERELVAAITWGVGSTYYADSVKGRFTISRDNAKNTVYLQMNSLKPEDTAVYYCAKRRYYGYGGDYWGQGTQVTVSS | high polyreactivity |
| QVQLVESGGGLVQAGGSLRLSCAASGRTFWFYTMGWYRQAPGKERELVAAISSGGSTNYADSVKGRFTISRDNAKNTVYLQMNSLKPEDTAVYYCNARFPVGPSEDAVWYYPKYDYWGQGTQVTVSS | low polyreactivity |
| QVQLVESGGGLVQAGGSLRLSCAASGSIFGYYVMGWYRQAPGKERELVAAISRSGGSTYYADSVKGRFTISRDHAKNTVYLQMNSLKPEDTAVYYCAARGTAERDYWGQGTQVTVSS | high polyreactivity |
| QVQLVESGGGLVQAGGSLRLSCAASGRIFGSYAMGWYRQAPGKERELVAAISGGGSTNYADSVKGRFTISRDNAKNTVYLQMNSLKPEDSAVYYCTADRGFAVIVLYGYWGQGTQVTVSS | low polyreactivity |
| QVQLVESGGGLFQAGGSLRLSCDPSGSIFEYYAMGWYRQAPGKERELVAAITQSGGSTYYADSVKGRFHKFTRQCEEYRLFPDEQPETGRYRGISLAADAECYQNDYALDYWGQGTQVTVSS | low polyreactivity |
| QVQLVESGGGLVQAGGSLRLSCAASGSTFQYNAMGWYRQAPGKERELVAVISGSGSRTYYADSVKGRFTISRDNAKNTVYLQMNSLKPEDTAVYYCAKQRGGEPRSSTYYYWGQGTQVTVSS | high polyreactivity |
| QVQLEESGGGLVQAGGSLRLSCAASGSTFYAYAMGWYRQAPGKERELVAAIDSGGSTYYADSVKGRFTSSRDNAKNTVYLQMNSLKPEDTAVYYCAVRHRYTRAFWGRDYWGQGTQVTVSS | low polyreactivity |
| QVQLVESGGGLVQAGGSLRLSCAASGFILSFYTMGWYRQEPGKERELVAVISSRGGRTYYADSVKGRFTISRDNAKNTVYLQMNSLKPEDTAVYYCNKRYYFPKPFDYWGQGTQVTVSS | high polyreactivity |
| QVQLVESGGGLVQAGGSLRLSCASSGRTISHNAMGWYRQAPGKERELVAAISRSGGRTYYADSVKGRFTISRYNAKNTVYLQMNSLKPEDTAVYYCAAEYFDGSTYSYYYWGQGTQVTVSS | high polyreactivity |
| QVQLVESGGGLVQAGGSLRLSCAASGSILYYAMGWYRQAPGKERELVATITRGGSTYYADSVKGRFTISRDNAKNTVYLQMNSLKPDDTAVYYCAARRAVRVGYYWHDISSYDYWGQGTQVTVPS | low polyreactivity |
